# According to US7041801 (VANDERBILT UNIVERSITY, dated 2006):
# B1: murine Del-1 (major form) expressed by del-1 transfected yolk sac YS-B cells (ligand)
# chain: DICNPNPCENGGICLSGLADDSFSCECPEGFAGPNCSSVVEVASDEEKPTSAGPCIPNPCHNGGTCEISEAYRGDTFIGYVCKCPRGFNGIHCQHNINECEAEPCRNGGICTDLVANYSCECPGEFMGRNCQYKCSGHLGIEGGIISNQQITASSNHRALFGLQKWYPYYARLNKKGLINAWTAAENDRWPWIQINLQRKMRVTGVITQGAKRIGSPEYIKSYKIAYSNDGKTWAMYKVKGTNEEMVFRGNVDNNTPYANSFTPPIKAQYVRLYPQICRRHCTLRMELLGCELSGCSEPLGMKSGHIQDYQITASSVFRTLNMDMFTWEPRKARLDKQGKVNAWTSGHNDQSQWLQVDLLVPTKVTGIITQGAKDFGHVQFVGSYKLAYSNDGEHWMVHQDEKQRKDKVFQGNFDNDTHRKNVIDPPIYARFIRILPWSWYGRITLRSELLGCAEEE
# notes: The protein is found in cell lysates, on the cell membrane and in the extracellular matrix of the transfectants (52 kDa band); also called del-1 transfectants; full-length Del-1 protein
# Biological target: T1, integrin αVβ3 expressed by human umbilical vein endothelial cells (HUVEC) (human, UniProt P06756 31-1048; P05106 27-788)
# T1 construct: whole, on cells; also called integrin alpha V beta 3
# Assay: binding to HUVEC; the receptor on HUVEC was identified as αVβ3
# Experimental: Human umbilical vein endothelial cells (HUVEC) (Clonetics Inc., San Diego, Calif.) were grown as indicated by the supplier in endothelial growth media supplemented with 10 ng/ml human recombinant epidermal growth factor, 1 μg/ml hydrocortisone, 50 μg/ml gentamicin, 12 μg/ml bovine brain extract and 2% FBS. Cells were grown at: 37° C./5% CO_2 to 70% confluency before use in the binding assay. […] The plates were washed with PBS and blocked for 30 min with a solution of heat treated (95° C. for 5 min) PBS containing 3% BSA. HUVEC cells were harvested by trypsinization and resuspended in an adhesion buffer (Hanks balanced salt solution pH 7.4 containing 10 mM Hepes, 2.2 mM MgCl_2, 0.2 mM MnCl_2 and 1% BSA). Cells (10^4/100 μl) were added to each well in the presence or absence of the indicated antagonists or controls at varying concentrations. […] Cells were incubated at 37° C./5% CO_2 for 60–90 min and wells were washed until no cells remained in the BSA control. To count remaining cells, 100 μl of endothelial media was added to each well. Cells number was determined by the Promega Cell titer AQ as indicated by the manufacturer.
# T1 sequence (P06756 31-1048, chain 1 of 2): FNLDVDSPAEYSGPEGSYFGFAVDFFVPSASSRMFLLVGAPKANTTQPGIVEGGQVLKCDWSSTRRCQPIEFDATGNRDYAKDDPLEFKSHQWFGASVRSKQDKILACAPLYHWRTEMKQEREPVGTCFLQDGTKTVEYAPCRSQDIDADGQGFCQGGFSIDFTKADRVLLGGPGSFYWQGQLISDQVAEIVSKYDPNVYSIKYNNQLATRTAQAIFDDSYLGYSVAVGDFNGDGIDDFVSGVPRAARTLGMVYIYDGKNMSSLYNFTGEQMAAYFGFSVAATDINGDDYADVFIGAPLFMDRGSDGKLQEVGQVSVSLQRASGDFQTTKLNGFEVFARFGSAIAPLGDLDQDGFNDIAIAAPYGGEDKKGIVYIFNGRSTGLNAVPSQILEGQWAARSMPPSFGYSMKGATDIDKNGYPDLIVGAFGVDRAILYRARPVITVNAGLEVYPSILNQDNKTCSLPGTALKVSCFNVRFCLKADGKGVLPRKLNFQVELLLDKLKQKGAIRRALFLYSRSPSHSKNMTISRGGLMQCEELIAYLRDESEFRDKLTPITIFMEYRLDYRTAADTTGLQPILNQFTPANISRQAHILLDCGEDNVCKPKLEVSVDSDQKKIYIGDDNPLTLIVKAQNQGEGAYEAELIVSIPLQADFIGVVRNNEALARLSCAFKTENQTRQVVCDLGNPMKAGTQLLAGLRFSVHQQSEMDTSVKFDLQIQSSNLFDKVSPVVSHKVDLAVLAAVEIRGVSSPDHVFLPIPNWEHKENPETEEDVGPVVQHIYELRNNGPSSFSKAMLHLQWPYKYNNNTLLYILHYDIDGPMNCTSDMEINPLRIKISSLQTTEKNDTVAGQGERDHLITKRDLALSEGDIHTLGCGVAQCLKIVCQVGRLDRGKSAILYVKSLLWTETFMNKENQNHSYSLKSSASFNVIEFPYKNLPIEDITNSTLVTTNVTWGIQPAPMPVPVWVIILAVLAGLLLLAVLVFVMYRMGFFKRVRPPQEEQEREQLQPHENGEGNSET
# T1 sequence (P05106 27-788, chain 2 of 2): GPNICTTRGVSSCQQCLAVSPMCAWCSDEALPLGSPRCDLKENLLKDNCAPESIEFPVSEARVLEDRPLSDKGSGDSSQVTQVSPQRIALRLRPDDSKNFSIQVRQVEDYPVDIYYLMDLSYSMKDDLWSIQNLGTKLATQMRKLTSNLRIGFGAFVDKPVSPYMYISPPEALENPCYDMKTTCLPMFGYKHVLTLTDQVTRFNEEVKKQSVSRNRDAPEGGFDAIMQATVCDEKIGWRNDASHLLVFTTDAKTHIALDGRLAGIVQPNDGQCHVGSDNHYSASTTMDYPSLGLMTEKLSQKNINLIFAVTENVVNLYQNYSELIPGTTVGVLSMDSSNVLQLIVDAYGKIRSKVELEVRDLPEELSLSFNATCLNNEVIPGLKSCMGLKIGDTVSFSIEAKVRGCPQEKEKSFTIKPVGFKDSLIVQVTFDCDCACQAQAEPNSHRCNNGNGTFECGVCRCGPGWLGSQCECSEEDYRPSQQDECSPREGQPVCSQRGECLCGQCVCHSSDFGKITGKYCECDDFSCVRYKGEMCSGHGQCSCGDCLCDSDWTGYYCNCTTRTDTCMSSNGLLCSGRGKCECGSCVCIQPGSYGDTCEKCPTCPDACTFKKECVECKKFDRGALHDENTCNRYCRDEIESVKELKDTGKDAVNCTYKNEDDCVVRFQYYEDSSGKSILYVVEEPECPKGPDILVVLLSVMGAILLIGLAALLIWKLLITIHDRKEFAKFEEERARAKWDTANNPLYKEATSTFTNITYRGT
binder,measurement,value
B1,binding result,binds
